Reference: US20230220589A1

B1: upgraded binder after additional maturation round (SEQ ID NO: 62) (designed binder, not shown: small tags and cut ends; large carriers)
chain: TVPDRSEIAGKWYVVALASNTEFYLRGKDRVKSAMVRISFQGEDELKVSSAVPSPNGCYKVERTWKKTSDDGEVYNSRAAKLKVEVLDTDYKSYAVIYATRVKDRRTDHQMILYSRSPDVSPAATAIFRKLAGERNYTDEMVAMLPRQEECTVDEV
B2: engineered M44-A binder (SEQ ID NO: 42) (designed binder, not shown: small tags and cut ends; large carriers)
chain: QVSVQPNFQQDKFLGRWFVAGLASNSSWDREKVAALSGAKMVVAPATDGGLNVTRTMLRKNQCETYTGLLQPAGSLGSYSWRSPHPGSTGSESVVETDYDQYALVYGQGSKGPGEDLRAAALWSRTQTPRAELKEKFTAFSKAQGFTEDTIVFLPQTDKCMTEQ

Assays:
[1] = biological target: M17-modified W NTAA target peptides; test: encoding assay; P2 S
[2] = biological target: M17-modified W NTAA target peptides; test: encoding assay; P2 G
[3] = biological target: M44-modified G NTAA target peptides (M44-G-P2-peptide); test: encoding assay; P2 G
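Note: fraction of recording tags encoded.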

Row | Binder | encoding yield [1] | encoding yield [2] | encoding yield [3]
1 | B1 | 0.03 | 0.04 | –
2 | B2 | – | – | 0.01
